# Laboratory results as given in patent US11733246B2, “Compositions, imaging, and therapeutic methods targeting folate receptor 1 (FOLR1)” (Indi Molecular, Inc., priority 2020, dated 2023).
# Read-outs that look alike come from different tables or passages of the source. Numbered stars: 1 amine (or outer) side, 2 acyl side, 3 side chain; on linkers, the order of the positions; unused ones are H or OH. Bridge positions count the residues as written; N and C are the ends. Square brackets hold non-standard residues; d marks the D form. Triazole bridges read from a SMILES are 1,4-linked. Peptide text beside a SMILES is read from it. * marks the point of attachment. DOTA = O=C(O)CN1CCN(CC(=O)O)CCN(CC(=O)*)CCN(CC(=O)O)CC1; Pteroyl = Nc1nc2ncc(CNc3ccc(C(=O)*)cc3)nc2c(=O)[nH]1; Biotin = O=C1N[C@H]2[C@H](CS[C@H]2CCCCC(=O)*)N1; Butanoyl(4-(4-I-phenyl)) = O=C(CCCc1ccc(I)cc1)*; Butanoyl(4-(4-MePh)) = Cc1ccc(CCCC(=O)*)cc1; Lys(N3) = [N-]=[N+]=NCCCC[C@H](N)C(=O)O; γGlu = O=C(O)[C@H](CCC(=O)[*:2])N[*:1]; AEEEA = NCCOCCOCCOCC(=O)O; Pra = C#CC[C@H](N)C(=O)O
# Experiments:
# human recombinant NEP = human recombinant NEP (Homo sapiens, UniProt P08473); type: biochemical
# Method: In order to test the susceptibility of GFK and MVK linkers to NEP-mediated cleavage, the peptide (Folate-hshta-Lys(MPBA)-Gly-Phe-Lys(DOTA) (SEQ ID NO:6)) was incubated with human recombinant NEP and analyzed the solution for the presence of cleaved adducts. MALDI was utilized to monitor the cleavage of a PCC heterobiligand that contains a NEP protease recognizable sequence (G-F-K). The PCC concentration was constant and the NEP concentration was titrated down from 10 nM to 1 nM, 0.1 nM, 0.01 nM, and no NEP. The NEP-mediated cleaved adduct was identified by mass. 10 μM PCC containing the GFK linker was combined with varying amounts of NEP. […] Below 0.1 nM no cleavage was observed. • Folate-hshta-Lys(MPBA)-Gly-Phe-Lys(DOTA) (SEQ ID NO:6) • Molecular weight 2231.42
# The NEP-mediated cleavage was also monitored by HPLC. In agreement with the MALDI spectra, the HPLC chromatograms show depletion of the parent brush-border heterobiligand (retention time 17.1 minutes), dose-dependent on the amount of NEP spiked into the sample (10 nM, 1 nM, 0.1 nM, 0.01 nM, and no NEP). An appearance of a new peak (retention time 16.5 minutes) in concert with the depletion of the starting material is presumed to be the cleaved folate-containing peptide.
# In order to test the specificity of NEP, a non-cleavable linker (PEG3) was also assayed.
# To reduce the radioactive dose to the kidney, Indi ^177Lu-7327 was constructed to incorporate a GFK linker that is susceptible to cleavage by enzymes found predominately in the kidney's brush border. These enzymes cleave off the radionuclide-chelator complex, which is quickly eliminated by the kidney for excretion in the urine. The zinc metalloprotease neprilysin (NEP) is expressed with high abundance in the kidney. […] To confirm NEP-mediated cleavage of the GFK linker in Indi 7327, the peptide was incubated with recombinant human NEP at 37° C. for 1 h and analyzed by matrix-assisted laser desorption/ionization mass spectrometry (MALDI-MS) for the evolution of cleaved adducts (FIG. 42). […] The expected cleaved adduct (mass: 1283.16 m/z) appears in the samples containing 10, 1.0, and 0.1 nM NEP. […] Below 0.1 nM NEP, no cleavage was observed. In addition to confirming the selectivity of NEP for the GFK linker, it is also important to note that the remaining portions of the Indi 7327 were impervious to the enzyme.
# human plasma proteins = assay: Plasma protein binding (equilibrium dialysis), human; type: in vitro ADME; conditions: human, plasma
# Method: (§1) HTD 96 a/b regenerated cellulose membrane strips with mass cutoff of 12-14 kDa were soaked in ultra-pure water at room temperature for 1 hour. Each swelled membrane was then soaked in 20:80 ethanol:water for 20 minutes.
# (§2) Just prior to the experiment, the membranes were re-soaked in ultra-pure water. Plasma was prepared by thawing under cold water. The plasma was centrifuged to remove any clots and pH was adjusted to 7.0-8.0. Test articles and control compounds were diluted to 2 μM. The dialysis device was loaded by transferring 150 μL of the test article (in triplicate) to the donor side. The dialysis device was placed in a humidified incubator at 37° C. with 5% CO2 in a shaking platform that rotated slowly for 4 hours. After incubation, 50 μL of the supernatant was taken from both sides and analyzed by LC-MS/MS.
# (§3) To optimize the albumin binding potential of the heterobiligand, a plasma protein binding (PPB) experiment was performed. This experiment measured the amount of test article bound and free after equilibrating with plasma. Compound #6305 (folate-hshta-Lys(MPBA)-Gly-Phe-Lys(DOTA) (SEQ ID NO:6)), which contains the MPBA albumin binder, was 96.26% bound to mouse plasma and 98.34% bound to human plasma. […] In mouse and human plasmas 99.6% and 99.5% was bound, respectively.
# [1] = as above; type: in vitro ADME
# Method: as §1, §2, §3
# mouse plasma proteins = assay: Plasma protein binding (equilibrium dialysis), mouse; type: in vitro ADME, CD-1 mouse; conditions: mouse, plasma
# Method: as §1, §2, §3
# [2] = as above; type: in vitro ADME, CD-1 mouse
# Method: as §1, §2, §3
# [3] = mouse, plasma, Plasma Stability (t 1/2)
# Method: (§4) Plasma was thawed in a 37° C. water bath. Residual clots were removed via centrifugation at 4000 rpm for 5 minutes. The pH of the plasma was adjusted to 7.4 if required. Test articles were diluted to 100 μM by diluting a 1 mM working solution (in DMSO) with 45% methanol in water. To 98 μL of plasma was added 2 μL of the 100 μM solution, resulting in 2 μM final concentration of the test article. Samples were incubated at 37° C. in a water bath. At the indicated time points (0, 10, 30, 60, 120 minutes) 100 μL of 4% H3PO4 was added followed by 800 μL of stop solution (200 ng/mL tolbutamide and 200 ng/mL labetalol in 100% acetonitrile). The samples were centrifuged and the plasma protein-free supernatant (100 μL) was subjected to LC-MS/MS analysis.
# [4] = human, plasma, Plasma Stability (t 1/2)
# Method: as §4
# in vitro [5] = conditions: CD-1, mouse, plasma, pH 7.4, Plasma Stability (t 1/2)
# Method: as §4
# in vitro [6] = conditions: human, plasma, pH 7.4, Plasma Stability (t 1/2)
# Method: as §4
# [7] = biological target: mouse recombinant FOLR1 (rMuFOLR1) (Mus musculus, UniProt P35846); assay: ELISA binding to mouse recombinant FOLR1
# Source text: Further evaluation of the folate-hshta (SEQ ID NO:6) Nterm heterobiligand depended on cross reactivity with mouse recombinant FOLR1 (rMuFOLR1). The heterobiligand binds to both species' variants of FOLR1 with high affinity. This observation was expected given the high homology between the two variants (approximately 92%).
# FOLR1 = biological target: T1, FOLR1 (Homo sapiens, UniProt P15328); assay: ELISA assay of FOLR1 binding
# T1 construct: His; purchased SinoBiological 11241-H08H
# Source text: FIG. 5 is a diagram of ELISA assay of FOLR1 binding of heterobiligands.
# Nonclinical studies were first conducted with Folate-hshta-PEG10-PEG10-K(Biotin), where Folate-hshta is the targeting heterobiligand, PEG10 is a deca(ethylene glycol) linker, and K(Biotin) is the detection label.
# Sequence of human recombinant NEP (P08473 whole entry): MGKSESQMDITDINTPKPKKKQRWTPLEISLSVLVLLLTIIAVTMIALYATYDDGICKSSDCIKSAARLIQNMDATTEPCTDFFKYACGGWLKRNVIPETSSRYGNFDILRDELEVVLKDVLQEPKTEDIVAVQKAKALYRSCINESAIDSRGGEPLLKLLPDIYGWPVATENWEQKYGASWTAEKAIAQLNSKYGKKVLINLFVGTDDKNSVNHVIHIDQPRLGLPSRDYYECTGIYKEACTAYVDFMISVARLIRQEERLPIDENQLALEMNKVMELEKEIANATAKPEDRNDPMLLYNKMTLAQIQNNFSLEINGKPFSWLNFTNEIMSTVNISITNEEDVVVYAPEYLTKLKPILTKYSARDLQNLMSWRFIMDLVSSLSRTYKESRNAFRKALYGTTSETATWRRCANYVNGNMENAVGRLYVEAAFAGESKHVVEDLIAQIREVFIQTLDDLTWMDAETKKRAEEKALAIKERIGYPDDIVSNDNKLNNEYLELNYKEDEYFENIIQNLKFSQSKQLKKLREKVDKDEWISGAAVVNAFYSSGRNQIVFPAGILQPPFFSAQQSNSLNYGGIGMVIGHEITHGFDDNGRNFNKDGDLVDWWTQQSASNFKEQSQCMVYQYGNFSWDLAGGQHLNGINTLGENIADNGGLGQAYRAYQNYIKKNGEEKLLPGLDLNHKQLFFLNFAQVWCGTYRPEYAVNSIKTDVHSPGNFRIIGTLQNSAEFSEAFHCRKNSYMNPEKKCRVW
# T1 sequence (P15328 25-234): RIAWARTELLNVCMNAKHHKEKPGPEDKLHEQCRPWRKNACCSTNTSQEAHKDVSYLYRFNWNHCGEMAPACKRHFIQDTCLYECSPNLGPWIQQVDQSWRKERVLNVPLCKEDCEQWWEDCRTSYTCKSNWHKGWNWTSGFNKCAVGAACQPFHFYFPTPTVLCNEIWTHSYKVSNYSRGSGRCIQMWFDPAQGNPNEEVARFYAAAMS
# Sequence of mouse recombinant FOLR1 (rMuFOLR1) (P35846 25-232): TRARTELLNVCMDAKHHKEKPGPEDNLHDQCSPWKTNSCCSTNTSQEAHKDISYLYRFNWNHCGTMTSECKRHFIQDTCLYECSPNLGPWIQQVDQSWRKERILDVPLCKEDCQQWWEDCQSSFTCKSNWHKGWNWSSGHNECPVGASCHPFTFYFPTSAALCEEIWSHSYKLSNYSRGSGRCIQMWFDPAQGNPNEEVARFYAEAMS
smiles,measurement,setting,value
"C[C@H](O)[C@H]1NC(=O)[C@@H](Cc2c[nH]cn2)NC(=O)[C@@H](CO)NC(=O)[C@@H](Cc2c[nH]cn2)NC(=O)[C@@H](NC(=O)CC[C@H](NC(=O)c2ccc(NCc3cnc4nc(N)[nH]c(=O)c4n3)cc2)C(=O)O)Cc2cn(nn2)CCCC[C@@H](C(=O)N[C@@H](CCCCNC(=O)CCCc2ccc(I)cc2)C(=O)NCC(=O)N[C@@H](Cc2ccccc2)C(=O)N[C@@H](CCCCNC(=O)CN2CCN(CC(=O)O)CCN(CC(=O)O)CCN(CC(=O)O)CC2)C(=O)O)NC(=O)[C@@H](C)NC1=O [compound #1307, Fol-hshta-Lys(4-IPBA)-Gly-Phe-Lys(DOTA)] ({Pteroyl-γGlu}-[Pra][dH][dS][dH][dT][dA][Lys(N3)]K(Butanoyl(4-(4-I-phenyl)))GFK(DOTA)-OH; triazole 1-7)",in vitro Assay Data (NEP assay),human recombinant NEP,Cleavage of -G-F-K-
same,Plasma % Bound,human plasma proteins,Hu: 99.50%
same,recovery,[1],84.4%
same,Plasma % Bound,mouse plasma proteins,Mu: 99.60%
same,recovery,[2],87.7%
"Cc1ccc(CCCC(=O)NCCCC[C@H](NC(=O)COCCOCCOCCNC(=O)[C@@H]2CCCCn3cc(nn3)C[C@H](NC(=O)CC[C@H](NC(=O)c3ccc(NCc4cnc5nc(N)[nH]c(=O)c5n4)cc3)C(=O)O)C(=O)N[C@H](Cc3c[nH]cn3)C(=O)N[C@H](CO)C(=O)N[C@H](Cc3c[nH]cn3)C(=O)N[C@H]([C@H](C)O)C(=O)N[C@H](C)C(=O)N2)C(=O)N[C@@H](CCCCNC(=O)CN2CCN(CC(=O)O)CCN(CC(=O)O)CCN(CC(=O)O)CC2)C(N)=O)cc1 [compound #2809, Fol-hshta-PEG3-Lys(4-MPBA)-Lys(DOTA)] ({Pteroyl-γGlu}-[Pra][dH][dS][dH][dT][dA][Lys(N3)][AEEEA]K(Butanoyl(4-(4-MePh)))K(DOTA)-NH2; triazole 1-7)",NEP-mediated cleavage (site / susceptibility),human recombinant NEP,unchanged
same,in vitro Assay Data (NEP assay),human recombinant NEP,resistant to NEP
same,recovery,[1],85.8%
same,fraction unbound,"[1]; human, plasma",0.167
same,half-life,[3],> 4.82 h
same,recovery,[2],108%
same,fraction unbound,"[2]; mouse, plasma",0.0791
same,half-life,[4],> 4.82 h
"C[C@H](O)[C@H]1NC(=O)[C@@H](Cc2cnc[nH]2)NC(=O)[C@@H](CO)NC(=O)[C@@H](Cc2cnc[nH]2)NC(=O)[C@@H](NC(=O)CC[C@H](NC(=O)c2ccc(NCc3cnc4nc(N)[nH]c(=O)c4n3)cc2)C(=O)O)Cc2cn(nn2)CCCC[C@@H](C(=O)NCC(=O)N[C@@H](Cc2ccccc2)C(=O)N[C@@H](CCCCNC(=O)CN2CCN(CC(=O)O)CCN(CC(=O)O)CCN(CC(=O)O)CC2)C(=O)O)NC(=O)[C@@H](C)NC1=O [compound #7327, Fol-hshta-Gly-Phe-Lys(DOTA)] ({Pteroyl-γGlu}-[Pra][dH][dS][dH][dT][dA][Lys(N3)]GFK(DOTA)-OH; triazole 1-7)",in vitro Assay Data (NEP assay),human recombinant NEP,Cleavage of -G-F-K-
same,"recovery at 4 h, 2 μM",[1]; human,113%
same,"fraction unbound at 4 h, 2 μM","[1]; human, plasma",0.597
same,"recovery at 4 h, 2 μM","[2]; CD-1, mouse",102%
same,"fraction unbound at 4 h, 2 μM","[2]; CD-1, mouse, plasma",0.591
same,half-life at 2 μM,in vitro [5],> 115 h
same,half-life at 2 μM,in vitro [6],> 115 h
C[C@H](O)[C@H]1NC(=O)[C@@H](Cc2c[nH]cn2)NC(=O)[C@@H](CO)NC(=O)[C@@H](Cc2c[nH]cn2)NC(=O)[C@@H](NC(=O)COCCOCCOCCNC(=O)CCCC[C@@H]2SC[C@@H]3NC(=O)N[C@@H]32)Cc2cn(nn2)CCCC[C@@H](C(N)=O)NC(=O)[C@@H](C)NC1=O [hshta] ({Biotin-AEEEA}-[Pra][dH][dS][dH][dT][dA][Lys(N3)]-NH2; triazole 1-7),EC50,[7],2.1 µM
same,EC50,"FOLR1; Human FOLR1, read-out: Ec50",3.4 µM
same,EC50,"FOLR1; read-out: EC50 (ELISA, FOLR1)",3.92 µM
